{
  "source": "the nanobody polyreactivity screen of Harvey et al. (2022)",
  "data": [
    {"assay": "yeast display, Sf9 membrane polyspecificity reagent, FACS + sequencing; frameworks hold sequencing errors", "procedure,_shortened": "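A nanobody's polyreactivity label depends on the gate it was sorted from. Yeast display cells were stained with 10% biotinylated, detergent-solubilized Sf9 membrane reagent for 1 hour at 4 °C, enriched on streptavidin microbeads and sorted by FACS. The low and high (top ~1%) gates were set on anti-HA fluorescence for expression and streptavidin fluorescence for reagent binding.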", "values": [
      {"sequence": "QVQLVESGGGLVQAGGSLRLSCAASGSIFRFNAMGWYRQAPGKEREFVAAISSGGRTYYADSVKGRFTISRDNAKNTVYGQRNSLKPDDPAVYYCAALWHRRGSWFRQTGSGYDYWGQGTQVTVSS", "polyreactivity (PSR sort gate)": "high polyreactivity"},
      {"sequence": "QVQLVESGGGLVQAGGSLRLSCAASGSIFRFNAMGWYRQAPGKERELVAAISASGGSTYYADSVKGRFTISRDNAKNTVYLQMNSLKPEDTAVYYCAARRTAGAYYGYNYWGQGTQVTVSS", "polyreactivity (PSR sort gate)": "high polyreactivity"},
      {"sequence": "QVQLVESGGGLVQAGGSLRLSCAASGSIFRFYAMGWYRQAPGKEGELVAAITSGGSTNYADSVKGRFTISRDNAKNTVYLQMNSLKPEDTAVSYCAAVVVYFFIYDYWGQGTQVTVSS", "polyreactivity (PSR sort gate)": "low polyreactivity"},
      {"sequence": "QVQLVESGGGLVQAGGSLRLSCAASGSIFRFYAMGWYRQAPGKERELVAAITSGGSTNYADSVKGRFTISRDNAKNTVYLQMNSLKPEDTAVYYCAAELVYFFIYDYWGKGTQVTVSS", "polyreactivity (PSR sort gate)": "low polyreactivity"},
      {"sequence": "QVQLVESGGGLVQAGGSLRLSCAASGSIFRFYAMGWYRQAPGKERELVAGISRRGGTTYYADSVKGRFTISRDNAKNTVYLQMNSLKPEDTAVYYCAKRSFGYKSRPAFNYWGQGTQVTVSS", "polyreactivity (PSR sort gate)": "high polyreactivity"},
      {"sequence": "QVQLVESGGGLVQAGGSLRLSCAASGSIFRGNAMGCYRQAPWKARELVAGINRAGSTKYADSVKGRFTISRDNAKNTVYVQMISLKQEDTEVYYCAAVRYERGLWSDYWGQGTQVTVSS", "polyreactivity (PSR sort gate)": "high polyreactivity"},
      {"sequence": "QVQLVESGGGLVQAGGSLRLSCAASGSIFRGNAMGWYRQAPGKERELVASISYSGGSTYYADSVKGRFTISRDTAKNTVYLQMNSLKPEDTAVYYCAADESVAYPYSGYQYYRHIYDYWGQGTQVTVSS", "polyreactivity (PSR sort gate)": "low polyreactivity"},
      {"sequence": "QVQLVESGGGLVQAGGSLRLSCAASGSIFRGYAMGWYRPAPGKERELVAAISWSAGSTYYADSVKGRFTISRDNAKNTVYLQMNSLKPEDTAVYYCAARSPRRKGMDYWGQGTQVTVSS", "polyreactivity (PSR sort gate)": "high polyreactivity"},
      {"sequence": "QVQLVESGGGLVQAGGSLRLSCAASGSIFRGYAMGWYRQAPGKERELVAAITSSGARTFYADSVKGRFTISRDNAKNTVYFLMKSLRPEDTAVYYCDAVSANQDFDSWGQGTQVSVSS", "polyreactivity (PSR sort gate)": "high polyreactivity"},
      {"sequence": "QVQLVESGGGLVQAGGSLRLSCAASGSIFRGYAMGWYRQAPGKERELVAVITSGGSTDYADSVKGRFTISRDNAKNTVYLQMNSLKPEDTAVYYCAALPGGYYDRGEYDYWGQGTQVTVSS", "polyreactivity (PSR sort gate)": "low polyreactivity"},
      {"sequence": "QVQLVESGGGLVQAGGSLRLSCAASGSIFRGYTMGWYRQAPGKERELVAAISRSGGSTYYADSVKGRFTISRDNAKNTVYLQMNSLKPEDTAVYYCNVVYFVTTSAGYDYWGQGTQVTVSS", "polyreactivity (PSR sort gate)": "high polyreactivity"},
      {"sequence": "QVQLVESGGGLVQAGGSLRLSCAASGSIFRGYTMGWYRQAPGKERELVAAISWSGGSTYYADSVKGRFTISRDNAKNTVYLQMNSLKPEDTAVYDCAAGDYYHRIFLWYDYWGQGTQVTVSS", "polyreactivity (PSR sort gate)": "low polyreactivity"},
      {"sequence": "QVQLVESGGGLVQAGGSLRLSCAASGSIFRGYTMGWYRQAPGKERELVATISWSGGSTYYADTVKGRFTISRDNAKNTVYLQMNSLKREDTAVYYCDARNQCRGYYWGEGTQVTVSS", "polyreactivity (PSR sort gate)": "high polyreactivity"},
      {"sequence": "QVQLVESGGGLVQAGGSLRLSCAASGSIFRINDMGWYRQAPGKERELVAAITFSGGSTYADSVKGRFTISRDNAKNTVNLQMNSLKPEDTAVYYCNADGAYWTDYYLYDYWGQGTQVTVSS", "polyreactivity (PSR sort gate)": "low polyreactivity"},
      {"sequence": "QVQLVESGGGLVQAGGSLRLSCAASGSIFRIYAMGWYRQAPGKERELVAAISWSGGSTYYADSVKGRFTISRDNANNTVYLQMNSRKPEDTAVYYCAARPRYKYSAYEYWGQGTQVTVSS", "polyreactivity (PSR sort gate)": "high polyreactivity"},
      {"sequence": "QVQLVESGGGLVQAGGSLRLSCAASGSIFRKNAMGWYRQAPGKERELVAAITGTGRTTYADSVKGRFTISRDNAKNTVYLQMNSLKPEDTAVYYCATSYHRRYDYWGQGTQVTVSS", "polyreactivity (PSR sort gate)": "low polyreactivity"},
      {"sequence": "QVQLVESGGGLVQAGGSLRLSCAASGSIFRKYPMGWYRQAPGKDTELVAAISKRGGSTYYADSVKGRFTISRDNAKNTVYLQMNSLKPEDTAVYYFNALRRYVSVRPTKSDYWGQGTQVTVSS", "polyreactivity (PSR sort gate)": "high polyreactivity"},
      {"sequence": "QVQLVESGGGLVQAGGSLRLSCAASGSIFRKYTMGWYKQAPGKERELVAAISGTAGRTYYADSVKGRFTISRDNAKNTVYLKMNSLKPEDTAVYYCAALRFGGYGYNYWGQGTQVTVSS", "polyreactivity (PSR sort gate)": "high polyreactivity"},
      {"sequence": "QVQLVESGGGLVQAGGSLRLSCAASGSIFRKYVMGWYRQAPGKERELVAVISSGTGTYYADSVKGRFTISRDNAKYTVYLQMNSLKPEDTAVYYCSSKYFGKWYKYYYWGQGTQVTVSS", "polyreactivity (PSR sort gate)": "high polyreactivity"},
      {"sequence": "QVQLVESGGGLVQAGGSLRLSCAASGSIFRLYAMGWYRQAPGKERELVAAISWTVGRTYYADSVKGRFTISRDNAKNTVYVQMNSLKPEDTAVYYCAAEKRILANWRRFDYWGQGTQVTVSS", "polyreactivity (PSR sort gate)": "low polyreactivity"},
      {"sequence": "QVQLVESGGGLVQAGGSLRLSCAASGSIFRLYVMGWYRQAPGKERELVATITRSGGNTYYADSVKGRFTISRDNAKNTVYLQMNSLKPEDTAVYYCAAQSAKSGFYPYNRYDYWGQGTQVTVSS", "polyreactivity (PSR sort gate)": "low polyreactivity"},
      {"sequence": "QVQLVESGGGLVQAGGSLRLSCAASGSIFRNYAMGWYRQAPGKERELVAAISRTTRTYYADSVKGRFTISRDNAKNTVYLQMNSLKPEDTAVYYCAADYVYAGFWLYYWGQGTQVTVSS", "polyreactivity (PSR sort gate)": "high polyreactivity"},
      {"sequence": "QVQLVESGGGLVQAGGSLRLSCAASGSIFRNYAMGWYRQAPGKERELVARISYSGGRTHYADSVKGRFTISRDNAKNTVYFQMNSLNPEDTAVYYCAAPFHFTHFQGNYYWGQGTQVTVSS", "polyreactivity (PSR sort gate)": "low polyreactivity"},
      {"sequence": "QVQLVESGGGLVQAGGSLRLSCAASGSIFRPNAMGWYRQAPGKEREFVASISGRVGSTYYADSVKGRFTISRDNAKNTVYLQMYSLKPEDTAVYYCAADSRGGYKRNYWGQGTQVTVSS", "polyreactivity (PSR sort gate)": "high polyreactivity"},
      {"sequence": "QVQLVESGGGLVQAGGSLRLSCAASGSIFRPNAMGWYRQAPGKERELVAAITFRGSRTYYADSVKGRFTISRDNAKNPVYLQMNSMKPEDTAVYYCNRLAGQDQEFEYWGQGTQVTVSS", "polyreactivity (PSR sort gate)": "high polyreactivity"},
      {"sequence": "QVQLVESGGGLVQAGGSLRLSCAASGSIFRPNAMGWYRQPPGKERELVALITRGGSTNYADSVKGRFTISRDNAKNTVYLQMNSLKPEDTAVYYCAVDLWYPPVWVRVSEFDYWGQGTQVTVSS", "polyreactivity (PSR sort gate)": "low polyreactivity"},
      {"sequence": "QVQLVESGGGLVQAGGSLRLSCAASGSIFRPYAMGWYRQAPGKEREFVASISWRGGSTYADSVKGRFTISRDNAKNTVYLQMNSLKPEDTAVYYCAAKFWRYRYYEYDYWGQGTQVTVSS", "polyreactivity (PSR sort gate)": "high polyreactivity"},
      {"sequence": "QVQLVESGGGLVQAGGSLRLSCAASGSIFRPYAMGWYRQAPGKERELVAAIRGGGTYYADSVKGRFTISRDNAKNTVYLQMNSLKPEDTAVYYCAQYRYSYYYWGQGTQVTVSS", "polyreactivity (PSR sort gate)": "high polyreactivity"},
      {"sequence": "QVQLVESGGGLVQAGGSLRLSCAASGSIFRPYAMGWYRQAPGKERELVAAISDSGGSTYYADSVKGRFTISRDNAKNTVYLQMNSLKPEDTAVYYCNAYSVWYYLASVLEVDYWGQGTQVTVSS", "polyreactivity (PSR sort gate)": "low polyreactivity"},
      {"sequence": "QVQLVESGGGLVQAGGSLRLSCAASGSIFRQYAMGWYRQAPGKERELVAAINYSGGNTYYADSVKGRFTISRDNAKNTVYLQMNSLKPEDTAVYYCAADSVRHYWWAYYYWGQGTQVTVSS", "polyreactivity (PSR sort gate)": "low polyreactivity"},
      {"sequence": "QVQLVESGGGLVQAGGSLRLSCAASGSIFRQYAMGWYRQAPGKERELVAAISRGGITYYADSVKGRFTISRDNAKNTVYLQMNSLKPEDTAVYYCAARYGRGERGGFYWGQGTQVTVSS", "polyreactivity (PSR sort gate)": "high polyreactivity"},
      {"sequence": "QVQLVESGGGLVQAGGSLRLSCAASGSIFRQYAMGWYRQAPGKERELVATISRSGGSTYYADSVKGRFTISRDNAKNTVYLQMNSLKPEDTAVYYCAASRYKKSYREWWVGSWGQGTQVTVSS", "polyreactivity (PSR sort gate)": "high polyreactivity"},
      {"sequence": "QVQLVESGGGLVQAGGSLRLSCAASGSIFRRNAMGWYRQAPGKEREFVAAITWIGGSTYYADSVKGRFTISRDNAKNTVYLQMNSLKPEDTAVYYCAAKYRTYPSNYYYWGQGTQVTVSS", "polyreactivity (PSR sort gate)": "high polyreactivity"},
      {"sequence": "QVQLVESGGGLVQAGGSLRLSCAASGSIFRRYAMGWYRKAPGKEREMVAGISRTGSRTYYADSVKGRFTISRDNAKNTVYLQMNSLKPEDTAVYYCAALGPGRSGFFRYDYWGQGTQVTVSS", "polyreactivity (PSR sort gate)": "high polyreactivity"},
      {"sequence": "QVQLVESGGGLVQAGGSLRLSCAASGSIFRRYAMGWYRQAPGKERELVAGITRGGSTYYADSVKGRFTISRDNAKNTVYLQMNSLKPEDTAVYYCNAVRRGLPVVGAYDYWGQGTQVTVSS", "polyreactivity (PSR sort gate)": "high polyreactivity"},
      {"sequence": "QVQLVESGGGLVQAGGSLRLSCAASGSIFRRYAMGWYRQAPGKERELVAGITRGGSTYYADSVKGRFTISRDNAKNTVYLQMNSLKPEDTAVYYCNRAARYGEYDYWGQGTQVTVSS", "polyreactivity (PSR sort gate)": "high polyreactivity"},
      {"sequence": "QVQLVESGGGLVQAGGSLRLSCAASGSIFRRYAMGWYRQAPGKERELVATITSTDSTNYADSVKGRFTISRDNAKNTVYLQMNSLKPEDTAVYYCAKRPYHYRRNSEYYYWGQGTQVTVSS", "polyreactivity (PSR sort gate)": "low polyreactivity"},
      {"sequence": "QVQLVESGGGLVQAGGSLRLSCAASGSIFRRYDMGWYRQAPGKERELVAAISSSGGSTYYADSVKGRFTISRDNAKNTVYLHMKSLKPEDTAVYYCAADIYDYDRSEYTEYDYWGQGTQVTVSS", "polyreactivity (PSR sort gate)": "low polyreactivity"},
      {"sequence": "QVQLVESGGGLVQAGGSLRLSCAASGSIFRRYTMGWYRPAPGKERELVAAISRVGNTNYADSVKGRFTISRDNAKNTVYLPMNSLKPEDTAVYYCAARAIGYRYTPGLNYWGQGTQLTVSS", "polyreactivity (PSR sort gate)": "high polyreactivity"},
      {"sequence": "QVQLVESGGGLVQAGGSLRLSCAASGSIFRSDPMGWYRQAPGKEREFVASITYRGGRTYYADSVKGRFTISRDNAKNTVSLQLNSLKPEDSAVYYCAARTRAGAWTSKYHDYWGQGTQVTVSS", "polyreactivity (PSR sort gate)": "high polyreactivity"},
      {"sequence": "QVQLVESGGGLVQAGGSLRLSCAASGSIFRSNALGWYRQAPGKERELVAAISWSGGRTYYADSVKGRFTISRDNAKNTVSLQMTSLKPEDTAVYYCAVGFRTLHGDYGYWGQGTQVTVSS", "polyreactivity (PSR sort gate)": "high polyreactivity"},
      {"sequence": "QVQLVESGGGLVQAGGSLRLSCAASGSIFRSNAMGWYRQAPGKERELVAAISRSGGRTYYADSVKGRFTISRDNAKNTVYLLMNSLKPEDTAVYYCAAQVVRSLKYEYWGQGTQVTVSS", "polyreactivity (PSR sort gate)": "high polyreactivity"},
      {"sequence": "QVQLVESGGGLVQAGGSLRLSCAASGSIFRSNAMGWYRQAPGKERELVAAISWRGGRTYYADSVKGRFTISRDNAKNSVYLLMNSLKPEDTAVYYCATEVEPYAYGYWGQGTQVTVSS", "polyreactivity (PSR sort gate)": "high polyreactivity"}
    ]}
  ]
}
